Assay results as given in patent US20240408194A1 (ARIZONA BOARD OF REGENTS ON BEHALF OF ARIZONA STATE …, published 2024).

Target: spike B1.17 (SARS-CoV-2)

B1: LCB1 protein (designed binder)
chain: DKEWILQKIYEIMRLLDELGHAEASMRVSDLIYEFMKKGDERLLEEAERLLEEVER
In the case of B1, the Kd is reported as 0.27 nM.
